B1: Anosmin-1 (Homo sapiens), P23352 (parent)
chain: MVPGVPGAVLTLCLWLAASSGCLAAGPGAAAARRLDESLSAGSVQRARCASRCLSLQITRISAFFQHFQNNGSLVWCQNHKQCSKCLEPCKESGDLRKHQCQSFCEPLFPKKSYECLTSCEFLKYILLVKQGDCPAPEKASGFAAACVESCEVDNECSGVKKCCSNGCGHTCQVPKTLYKGVPLKPRKELRFTELQSGQLEVKWSSKFNISIEPVIYVVQRRWNYGIHPSEDDATHWQTVAQTTDERVQLTDIRPSRWYQFRVAAVNVHGTRGFTAPSKHFRSSKDPSAPPAPANLRLANSTVNSDGSVTVTIVWDLPEEPDIPVHHYKVFWSWMVSSKSLVPTKKKRRKTTDGFQNSVILEKLQPDCDYVVELQAITYWGQTRLKSAKVSLHFTSTHATNNKEQLVKTRKGGIQTQLPFQRRRPTRPLEVGAPFYQDGQLQVKVYWKKTEDPTVNRYHVRWFPEACAHNRTTGSEASSGMTHENYIILQDLSFSCKYKVTVQPIRPKSHSKAEAVFFTTPPCSALKGKSHKPVGCLGEAGHVLSKVLAKPENLSASFIVQDVNITGHFSWKMAKANLYQPMTGFQVTWAEVTTESRQNSLPNSIISQSQILPSDHYVLTVPNLRPSTLYRLEVQVLTPGGEGPATIKTFRTPELPPSSAHRSHLKHRHPHHYKPSPERY

Variants of: B1
Conditions: with fgfr1_human FGFR1, P11362
fgfr1_human FGFR1, P11362, sequence (P11362 whole entry, looked up): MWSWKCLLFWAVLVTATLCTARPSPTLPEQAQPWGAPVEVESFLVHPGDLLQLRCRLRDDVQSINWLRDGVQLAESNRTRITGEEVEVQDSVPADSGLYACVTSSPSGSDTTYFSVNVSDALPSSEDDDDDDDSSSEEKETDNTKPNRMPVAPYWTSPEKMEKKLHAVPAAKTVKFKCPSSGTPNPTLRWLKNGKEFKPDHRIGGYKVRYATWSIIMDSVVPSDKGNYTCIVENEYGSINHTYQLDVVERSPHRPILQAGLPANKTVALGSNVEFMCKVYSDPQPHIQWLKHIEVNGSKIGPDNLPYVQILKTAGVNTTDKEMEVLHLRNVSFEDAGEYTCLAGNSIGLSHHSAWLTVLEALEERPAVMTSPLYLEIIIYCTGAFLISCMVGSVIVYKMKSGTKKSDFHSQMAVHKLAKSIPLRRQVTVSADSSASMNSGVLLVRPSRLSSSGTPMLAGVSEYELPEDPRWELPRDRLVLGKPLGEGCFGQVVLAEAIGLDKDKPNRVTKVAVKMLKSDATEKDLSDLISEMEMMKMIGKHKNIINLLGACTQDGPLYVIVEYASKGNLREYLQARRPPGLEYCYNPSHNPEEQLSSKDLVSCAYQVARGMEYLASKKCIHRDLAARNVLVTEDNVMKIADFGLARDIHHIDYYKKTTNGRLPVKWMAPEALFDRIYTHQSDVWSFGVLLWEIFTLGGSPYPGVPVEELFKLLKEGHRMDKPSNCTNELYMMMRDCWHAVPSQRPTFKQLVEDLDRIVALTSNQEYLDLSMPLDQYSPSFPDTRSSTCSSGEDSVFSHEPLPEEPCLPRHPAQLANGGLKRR

effect of a mutation on the interaction	Variant
disrupting interaction	N267K

— IntAct's records for PubMed 19696444
